This is an account of results in PMC9127583 (iScience, 2022).

In the test the target is full-length Hsp70 (UniProt P0DMV8 1-641). Put plainly: NMR titration.
Sequence of full-length Hsp70 (P0DMV8 whole entry): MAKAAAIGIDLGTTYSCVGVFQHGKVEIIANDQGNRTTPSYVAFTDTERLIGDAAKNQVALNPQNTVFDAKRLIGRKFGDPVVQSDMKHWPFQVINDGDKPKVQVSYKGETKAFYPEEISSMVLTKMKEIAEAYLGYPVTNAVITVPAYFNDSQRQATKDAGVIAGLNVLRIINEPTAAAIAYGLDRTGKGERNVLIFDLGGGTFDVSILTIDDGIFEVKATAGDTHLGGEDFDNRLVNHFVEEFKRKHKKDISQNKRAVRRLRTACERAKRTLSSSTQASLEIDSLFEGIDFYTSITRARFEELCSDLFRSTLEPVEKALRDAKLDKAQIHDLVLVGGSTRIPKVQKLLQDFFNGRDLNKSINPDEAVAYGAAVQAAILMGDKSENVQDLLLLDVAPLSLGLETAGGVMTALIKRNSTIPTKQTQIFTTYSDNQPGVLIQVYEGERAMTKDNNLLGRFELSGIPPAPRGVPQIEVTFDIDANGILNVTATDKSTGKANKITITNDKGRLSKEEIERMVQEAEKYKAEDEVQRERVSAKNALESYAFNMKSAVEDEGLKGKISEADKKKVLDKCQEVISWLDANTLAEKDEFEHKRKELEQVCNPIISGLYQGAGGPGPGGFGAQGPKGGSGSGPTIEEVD

B1: FUS-LC (residues 1-163) (domain or fragment, UniProt P35637 1-163, looked up)
chain: MASNDYTQQATQSYGAYPTQPGQGYSQQSSQPYGQQSYSGYSQSTDTSGYGQSSYSSYGQSQNTGYGTQSTPQGYGSTGGYGSSQSSQSSYGQQSSYPGYGQQPAPSSTSGSYGSSSQSSSYGQPQSGSYSQQPSYGGQQQSYGQQQSYNPPQGYGQQNQYNS
With B1, the binding result is listed as “binds”.
